How the values were obtained:
[1] = target: B. thuringiensis 5-deoxyribose disposal isomerase DrdI, His6-tagged (Bacillus thuringiensis HD73-20 (BGSC 4D22)); experiment: SEC; native molecular mass estimated on a Superdex 200 column, eluted with 50 mM HEPES-KOH, 50 mM KCl, pH 7.5, 10% glycerol
DrdA (aldolase) = DrdA (aldolase) (Bacillus thuringiensis, UniProt P0DTQ0); conditions: tag-free protein, Mn2+ site, co-crystallised with 20 equivalents DHAP, pH 7.5
DEP1 (AtDEP1) = target: T1, DEP1 (AtDEP1) (Arabidopsis thaliana, UniProt Q9FN41); experiment: coupled glycerol-3-phosphate dehydrogenase NADH assay; format: biochemical; conditions: aldol cleavage, 500 µM dRu1P, pH 8.2, 21 °C
T1 construct: gene At5g53850; C-terminal His6-tag, from cDNA clone, expressed in E. coli BL21 CodonPlus (DE3)-RIPL; class II aldolase fused to HAD phosphatase domain
T1 sequence (Q9FN41 2-507): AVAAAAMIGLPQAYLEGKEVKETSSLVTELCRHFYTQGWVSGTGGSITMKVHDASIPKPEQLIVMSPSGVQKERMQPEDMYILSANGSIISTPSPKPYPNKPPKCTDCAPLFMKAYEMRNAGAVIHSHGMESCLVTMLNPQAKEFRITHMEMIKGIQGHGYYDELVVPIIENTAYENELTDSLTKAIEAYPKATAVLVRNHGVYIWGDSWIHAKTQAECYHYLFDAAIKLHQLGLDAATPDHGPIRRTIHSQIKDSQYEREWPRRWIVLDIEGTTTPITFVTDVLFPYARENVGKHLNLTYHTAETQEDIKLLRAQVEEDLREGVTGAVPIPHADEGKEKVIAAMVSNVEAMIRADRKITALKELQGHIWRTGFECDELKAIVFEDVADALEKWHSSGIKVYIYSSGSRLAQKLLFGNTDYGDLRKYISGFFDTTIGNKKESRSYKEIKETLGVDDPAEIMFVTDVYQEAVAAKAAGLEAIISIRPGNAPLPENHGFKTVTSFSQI

[2] = target: the molecule itself; experiment: crystal structure; X-ray, 1.55 Å, space group P42(1)2, one monomer per asymmetric unit; crystals from 200 mM NaCl, 28% PEG-3350, 100 mM HEPES-KOH pH 7.5, 20 °C
[3] = substrate: C[C@H]1O[C@H](OP(=O)(O)O)[C@H](O)[C@@H]1O; experiment: coupled DrdA/glycerol-3-phosphate dehydrogenase NADH assay; format: biochemical, Bacillus thuringiensis; conditions: pH 8.0, 21 °C
Source text: coupled DrdA/glycerol-3-phosphate dehydrogenase NADH assay on DrdI (isomerase)

[4] = target: the molecule itself; experiment: SEC; native molecular mass estimated on a Superdex 200 column, eluted with 50 mM HEPES-KOH, 50 mM KCl, pH 7.5, 10% glycerol
[5] = substrate: Nc1ncnc2c1ncn2[C@@H]1O[C@H](COP(=O)(O)OP(=O)(O)OP(=O)(O)O)[C@@H](O)[C@H]1O; experiment: coupled pyruvate kinase/lactate dehydrogenase NADH assay; format: biochemical, Bacillus thuringiensis; conditions: co-substrate 5-deoxyribose (500 µM), Mg2+, pH 8.0, 21 °C
Source text: coupled pyruvate kinase/lactate dehydrogenase NADH assay on DrdK (kinase)

B. thuringiensis 5-deoxyribose disposal isomerase DrdI, His6-tagged (enzyme)
stoichiometry N [1]: 2

O=C(CO)COP(=O)(O)O [dihydroxyacetone phosphate]
X-ray crystal structure of complex (DrdA (aldolase)): we solved the co-complex structure of DHAP bound to DrdA

C[C@@H](O)[C@@H](O)C(=O)COP(=O)(O)O [5-deoxyribulose 1-phosphate]
coupled glycerol-3-phosphate dehydrogenase NADH assay (DEP1 (AtDEP1)): Recombinant DEP1 showed aldolase activity towards 5-deoxyribulose-1-phosphate

B1: B. thuringiensis aldolase DrdA, tag-free variant (enzyme)
chain: MLLQKEREEIVAYGKKMISSGLTKGTGGNISIFNREQGLVAISPSGLEYYETKPEDVVILNLDGEVIEGERKPSSELDMHLIYYRKREDINALVHTHSPYAKTIASLGWELPAVSYLIAFAGPNVRCAPYETFGTKQLADAAFEGMIDRRAVLLANHGLIAGANNIKMAFTVAEEIEFCAQIYYQTKSIGEPKLLPEDEMENLAKKFEGYGQQ
notes: also called tag-free version; His-tag-free protein; source: E. coli BL21(DE3), purified (ammonium sulfate precipitation, MonoQ anion exchange, Superdex 200 SEC)
stoichiometry N [2]: 4

B2: DrdI (isomerase) (Bacillus thuringiensis serovar kurstaki str. HD73) (protein)
chain: MMEEQLIPIQWKDDALVLLDQTLLPNEIVYESFKTAESVWDAIQVMKVRGAPVIGVSAAYGVYLGVKEFAESTEEGFMDEVRKVCTYLATSRPTAVNLFWALERMESVAADNIHLSISQLKDRLLEEAKEIHREDEEINRQIGEHALTLFHDGMGVLTHCNAGALATTKYGTATAPMYLAKEKGWDLKIFSDETRPRLQGSTLTALELQRAGIDVTVITDNMAAMVMSQGKIDAVIVGCDRVAANGDIANKIGTLGVSILAKYYNIPFYVAAPTPTIDLKTPTGKEIPIEERDASEVINRFGQYSAPKESKVYNPAFDVTPHENVTAIITEKGIVKAPFTENLKKIFQ
notes: full length, N-terminal His6-tag with short linker, expressed in E. coli BL21 CodonPlus (DE3)-RIPL; dimer
Km [3]: 22 ± 7 × 10^3 µM
kcat [3]: 3.5 ± 0.7 s⁻¹
kcat/Km [3]: 160 ± 60 M⁻¹ s⁻¹

B3: B. thuringiensis 5-deoxyribose disposal kinase DrdK, His6-tagged (enzyme, UniProt P0DTQ2 1-409, looked up)
chain: MSKFTKYFLMEASDVIAYVKEKLSKFEHAKGLKCKEIGDGNLNYVFRVWDKKENMSVIVKQAGDTARISDEFKLSTNRIRIESDVLQLENELAPGLVPKVYLFDSVMNCCVMEDLSNHTILRTALINHQIFPQLADDLTTFMVNTLLLTSDVVMNHKEKKELVKNYINPELCEITEDLVYSEPFTNHNKRNELFPLNEGWIREHIYSDKELRMEVAKRKFSFMTNAQALLHGDLHTGSVFVRDDSTKVIDPEFAFYGPMGYDVGNVMANLMFAWVNADATMPPGAEKDTYMDWLQTTMVEVIDLFKKKFLDAWDIHVTEIMAKEEGFNEVYLQSVLEDTAAVTGLELIRRIVGLAKVKDITCIENEEARARAEQICLKVAKSFILRANQYRTGRSFVETLKEQSMHYAE
notes: Cloned into pET28b (XbaI/XhoI amplicon into NheI/XhoI); No step that removes the tag is described; also called 5-deoxyribose kinase; source: E. coli BL21 CodonPlus (DE3)-RIPL, purified (Ni-NTA)
stoichiometry N [4]: 2
Km [5]: 216 ± 63 µM
kcat [5]: 17.1 ± 2.5 s⁻¹
kcat/Km [5]: 79000 ± 26000 M⁻¹ s⁻¹
